Source: US20220348651A1, “ENTPD2 ANTIBODIES, COMBINATION THERAPIES, AND METHODS OF USING THE ANTIBODIES AND COMBINATION THERAPIES” (Novartis AG, priority 2019, published 2022)
Numbering of substitutions follows the chain as printed.

T1: mouse ENTPD2 (Mus musculus, UniProt O55026)
T1 construct: residues 29-462 of mouse or rat ENTPD2 (the extracellular domain); mouse IgK signal peptide (N); His6; made in house; host or cells: FreeStyle 293-F cells, transient transfection
T1 sequence (O55026 29-462): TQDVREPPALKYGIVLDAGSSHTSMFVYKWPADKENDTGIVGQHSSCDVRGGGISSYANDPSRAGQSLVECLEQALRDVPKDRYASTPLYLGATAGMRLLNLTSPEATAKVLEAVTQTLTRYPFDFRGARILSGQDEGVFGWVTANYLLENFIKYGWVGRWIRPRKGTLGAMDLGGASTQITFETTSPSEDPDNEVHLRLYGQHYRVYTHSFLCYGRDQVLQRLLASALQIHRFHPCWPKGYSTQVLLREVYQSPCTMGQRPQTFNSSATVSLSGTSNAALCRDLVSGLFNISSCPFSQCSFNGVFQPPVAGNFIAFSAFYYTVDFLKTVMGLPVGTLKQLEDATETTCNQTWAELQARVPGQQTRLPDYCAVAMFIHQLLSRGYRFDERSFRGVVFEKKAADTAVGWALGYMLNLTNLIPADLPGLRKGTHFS

T2: human ENTPD2 (Homo sapiens, UniProt Q9Y5L3)
T2 construct: residues 29-462 of human or cyno ENTPD2 were cloned into expression vector; GP67 signal peptide (N); made in house; host or cells: High Five (Trichoplusia ni) insect cells, baculovirus
T2 sequence (Q9Y5L3 29-462): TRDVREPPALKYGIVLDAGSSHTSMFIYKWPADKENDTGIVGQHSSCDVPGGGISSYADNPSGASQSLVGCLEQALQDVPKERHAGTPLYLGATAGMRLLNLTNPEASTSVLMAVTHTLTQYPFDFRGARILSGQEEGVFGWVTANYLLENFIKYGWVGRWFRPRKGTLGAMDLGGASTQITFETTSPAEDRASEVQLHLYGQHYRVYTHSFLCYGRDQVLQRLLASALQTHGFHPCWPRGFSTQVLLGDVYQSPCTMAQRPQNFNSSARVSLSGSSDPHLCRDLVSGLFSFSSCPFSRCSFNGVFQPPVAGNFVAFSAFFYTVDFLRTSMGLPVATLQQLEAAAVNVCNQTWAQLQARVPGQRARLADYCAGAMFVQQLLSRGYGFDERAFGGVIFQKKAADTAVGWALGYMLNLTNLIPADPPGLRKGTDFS

B1: mAb8: anti-human ENTPD2 antibody of Table 1; VH SEQ ID NO: 91, VL SEQ ID NO: 102 (antibody, V domains shown)
VH: QVQLQQSGPGLVKPSQTLSLTCAISGDSVSSSSAAWNWIRQSPSRGLEWLGRIYYRSKWYNDYAVSVKSRITINPDTSKNQFSLQLNSVTPEDTAVYYCARGSYVTSSYEGFDYWGQGTLVTVSS
VL: SYELTQPLSVSVALGQTARITCSGDNLPEKYAYWYQQKPGQAPVLVIYDDNKRPSGIPERFSGSNSGNTATLTISRAQAGDEADYYCQSYGKWGWTWVFGGGTKLTVL
B2: mAb9: anti-human ENTPD2 antibody of Table 1; VH SEQ ID NO: 115, VL SEQ ID NO: 125 (antibody, V domains shown)
VH: QVQLVQSGAEVKKPGSSVKVSCKASGGTFDSYAVSWVRQAPGQGLEWMGRIVPWLGHTQYAQKFQGRVTITADESTSTAYMELSSLRSEDTAVYYCARESPGYRYSFDVWDQGTLVTVSS
VL: SYELTQPLSVSVALGQTARITCSGDAIGEKYVYWYQQKPGQAPVLVIYDDNNRPSGIPERFSGSNSGNTATLTISRAQAGDEADYYCASYDLQQARWVFGGGTKLTVL
B3: mAb10: anti-human ENTPD2 antibody of Table 1; VH SEQ ID NO: 132, VL SEQ ID NO: 125 (antibody, V domains shown)
VH: B2 VH with H57F, Q59R
VL: B2 VL
B4: mAb4: humanized anti-human ENTPD2 antibody from mAb16; VH SEQ ID NO: 46, VL SEQ ID NO: 57 (antibody, V domains shown)
VH: QIQLQESGPGLVKPSQTLSLTCTVSGYSITSGYYWNWIRQHPGKGLEWIGYISYDADNNYNPSLKNRVTISRDTSKNQFSLKLSSVTAADTAVYYCAGGYYRYGLGSYRGSYYYVMDYWGQGTTVTVSS
VL: ETVLTQSPATLSVSPGERATISCKASQSVDYEGHSYMNWYQQKPGQAPRLLIYAASNLESGIPARFSGSGSGTDFTLTISSVEPEDAATYYCQQSNEDPPTFGGGTKLEIK
B5: mAb5: humanized anti-human ENTPD2 antibody from mAb16; VH SEQ ID NO: 46, VL SEQ ID NO: 64 (antibody, V domains shown)
VH: B4 VH
VL: B4 VL with E32D, H34N
B6: mAb3: humanized anti-human ENTPD2 antibody from mAb17; VH SEQ ID NO: 33, VL SEQ ID NO: 29 (antibody, V domains shown)
VH: QVQLVQSGAEVVKPGASVKISCKASGYTFTDYNMDWVKQAPGQRLEWIGDINPKYDISTYNQQFKGKATITVDTSASTAYMELSSLRSEDTAVYYCARRGFFLYYGINYYYFDVWGQGTLVTVSS
VL: EIVLTQSPATLSASPGERITLSCSASSSVSYIHWYQQKPGQAPRLLIYSTSNLASGIPARFSGSGSGTFYTLTISSVEPEDAAVYYCHQWSSYPWTFGGGTKLEIK
B7: mAb2: humanized anti-human ENTPD2 antibody from mAb17; VH SEQ ID NO: 25, VL SEQ ID NO: 29 (antibody, V domains shown)
VH: B6 VH with T74K
VL: B6 VL

Biological target: T1, mouse ENTPD2
Experiment: Antibody specificity: binding to mouse ENTPD2
Settings: not given
Description: Antibody specificity for mAbl-mAblO was confirmed. […] Antibodies mAb8, mAb9, and mAb10 show weak affinity to mouse ENTPD2. None of the selected antibodies bind to rat ENTPD2.

affinity / cross-reactivity to mouse ENTPD2 | Molecule
weak affinity | B1
weak affinity | B2
weak affinity | B3

Same assay, conditions: Mouse ENTPD2

BIACore KD | Molecule
No binding | B4
No binding | B5
Weak binding | B1
No binding | B6
No binding | B7
Weak binding | B3

System: cynomologus (cyno) ENTPD2
Experiment: Biacore (SPR) affinity to cyno ENTPD2 ECD
Type: binding, cynomolgus monkey
Settings: 25° C.
Procedure: (§1) Biacore Screening: Affinity was measured by determining the kinetic rate constants using surface plasmon resonance (SPR) on a Biacore T200 or T100 with the T200 sensitivity upgrade instrument (Biacore, GE Healthcare). Antibodies were captured on CM5 sensor chips (Biacore, GE Healthcare) prepared with a mouse anti-human IgG Fc antibody (ThermoFisher catalogue #05-4200) amine coupled to the surface. […] ENTPD2 analytes were allowed to associate for 180 s and dissociate for up to 1800 s depending on the off-rate of the antibody at a flow rate of 30 μL/min. The running buffer was PBS pH 7.2 (prepared from a Corning 10X stock, cat#46-013-CM)+0.05% Tween 20. Regeneration was accomplished with 30 s injections of 3 or 4 M MgCl2 to remove all the captured antibody and remaining complex from the surface, after which fresh antibody was captured. The raw data were analyzed using Biacore T200 Evaluation Software version 1.0 and fit to a 1:1 binding model, with all parameters set to fit globally except for RI, which was set to fit locally.

Sequence of cynomologus (cyno) ENTPD2 (as listed by the source): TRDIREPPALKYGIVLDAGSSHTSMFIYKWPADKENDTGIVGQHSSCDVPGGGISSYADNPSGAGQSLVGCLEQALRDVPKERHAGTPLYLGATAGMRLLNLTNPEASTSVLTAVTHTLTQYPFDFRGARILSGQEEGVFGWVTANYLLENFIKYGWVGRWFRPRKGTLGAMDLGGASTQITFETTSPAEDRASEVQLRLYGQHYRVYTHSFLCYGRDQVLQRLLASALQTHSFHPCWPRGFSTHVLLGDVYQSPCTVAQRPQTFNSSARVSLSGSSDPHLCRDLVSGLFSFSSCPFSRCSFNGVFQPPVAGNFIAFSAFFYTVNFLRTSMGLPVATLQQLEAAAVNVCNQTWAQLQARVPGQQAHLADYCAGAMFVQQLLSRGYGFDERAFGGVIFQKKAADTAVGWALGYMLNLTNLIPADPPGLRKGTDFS

kd [s⁻¹] | Kd [nM] | Molecule | ka [M⁻¹ s⁻¹]
0.0057 | – | B4 | 140000
0.003 | – | B5 | 290000
0.024 | – | B1 | 300000
0.00098 | – | B6 | 450000
0.0012 | 2.8 | B7 | 430000
0.021 | – | B2 | 990000
0.018 | – | B3 | 1.2e+06

Biological target: T2, human ENTPD2
Experiment: Biacore (SPR) affinity to human ENTPD2 ECD
Type: binding
Settings: 25° C.
Procedure: as §1

ka [M⁻¹ s⁻¹] | kd [s⁻¹] | Kd [nM] | Molecule
300000 | 0.00022 | – | B4
270000 | 0.00016 | – | B5
290000 | 0.00094 | – | B1
130000 | 0.00016 | – | B6
110000 | 0.00018 | 1.7 | B7
380000 | 0.0003 | – | B2
340000 | 0.00024 | – | B3
